Reference: paper PMC3974974

Assays:
Experiment in all cases: SPR; SIRPα variants immobilized via a biotin tag on a streptavidin-coated CM5 chip, BIAcore 3000, 37 °C; dilutions of soluble monomeric CD47 (0.05 to 25.7 μM) injected; KD from equilibrium binding; purification of the variants from 293T not told
[1] = molecular target: SIRPα variant v10, three Ig superfamily domains linked to rat CD4d3 and -4 and a biotinylation sequence (human)
[2] = molecular target: SIRPα variant v7, three Ig superfamily domains linked to rat CD4d3 and -4 and a biotinylation sequence (human)
[3] = molecular target: SIRPα variant v1, three Ig superfamily domains linked to rat CD4d3 and -4 and a biotinylation sequence (human)
[4] = molecular target: SIRPα variant v2, three Ig superfamily domains linked to rat CD4d3 and -4 and a biotinylation sequence (human)
[5] = molecular target: SIRPα variant v5, three Ig superfamily domains linked to rat CD4d3 and -4 and a biotinylation sequence (human)
Chain of SIRPα variant v5, three Ig superfamily domains linked to rat CD4d3 and -4 and a biotinylation sequence (human) (P78324 31-504, stated change not applied): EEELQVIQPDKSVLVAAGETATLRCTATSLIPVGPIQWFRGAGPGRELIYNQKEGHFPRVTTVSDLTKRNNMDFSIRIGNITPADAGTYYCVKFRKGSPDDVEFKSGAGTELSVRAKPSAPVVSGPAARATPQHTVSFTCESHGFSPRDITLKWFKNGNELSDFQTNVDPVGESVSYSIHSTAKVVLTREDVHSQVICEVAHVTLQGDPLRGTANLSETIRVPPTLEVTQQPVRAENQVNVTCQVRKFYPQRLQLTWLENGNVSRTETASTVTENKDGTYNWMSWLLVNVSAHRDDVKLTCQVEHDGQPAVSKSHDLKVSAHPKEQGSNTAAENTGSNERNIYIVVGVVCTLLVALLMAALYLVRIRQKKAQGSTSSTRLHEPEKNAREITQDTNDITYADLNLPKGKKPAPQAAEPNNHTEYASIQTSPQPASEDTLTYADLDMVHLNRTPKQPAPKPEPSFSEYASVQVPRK

Chain of SIRPα variant v7, three Ig superfamily domains linked to rat CD4d3 and -4 and a biotinylation sequence (human) (P78324 31-504, stated change not applied): as above

Substance: Recombinant CD47 Ig superfamily domain (from UniProt Q08722 19-136) (domain or fragment)
- Kd [1]: 670 nM
- Kd [2]: 650 nM
- Kd [3]: 740 nM
- Kd [4]: 640 nM
- Kd [5]: 780 nM
